These results are taken from publication PMC8503845.

For this assay, the target named is SZ*-GFP-Ub4 (HA-tagged) (UniProt P0CG63). In words: co-IP.

B1: Ubx2-6xGly-3xFLAG (natural protein)
chain: MPVVNHEDSEFHLSHTEEDKLNEFQVITNFPPEDLPDVVRLLRNHGWQLEPALSRYFDGEWKGEPDQMGEPTQTSTPMAETLVPPALGPRPLLFTASLPVVRPLPANFRNDFRTIGLNGRSNTVWSMFESFSYDGNPFLFILLLIPRIINRLSATIFTFFCTLLSLHSISGGGNSGKPKISKVPKAPTRETHIPLAEILGDTKDKDAFCELKSFKPDISFNEALRIAKEEFKFMLLILVGDTYDTDTDTVDVNSKLLLEKILLNKKTLQYLRKIDNDLIIYLKCVHELEPWLVARQLGVRNTPEIFLIANVANKASHSETLPSQRLSILGKLKVNSLNRFLQSLTNVVEKYTPELVVNKTEMHELRMSREIKKLQEDAYKKSLEMDRIKAIEKEKSLKHAQDLKLNSTARQLKWLKACIDEIQPFETTGKQATLQFRTSSGKRFVKKFPSMTTLYQIYQSIGCHIYLAVYSSDPAEWSNALQDKIRQLSADDDMLCFKEGQLETATATTIEELGHIINNELTSFDLERGKLEFDFELVSPFPKYTVHPNEHMSVDQVPQLWPNGSLLVEALDEEDEEDEENEEQ
For B1, the fold increase of binding relative to the Ubx2-SZ*-GFP complex came out at 10 fold.
